Reference: US20050008653

How the values were obtained:
[1] = molecular target: p53 core domain I195T I195T (UniProt P04637); assay: FP
[2] = molecular target: p53 core domain wild-type (UniProt P04637); assay: FP; conditions: wild-type value quoted for comparison; CDB3 did not affect wild-type DNA binding

Gadd45 30-mer DNA
Kd ([1]; after 1 h at 10 C with 100 uM CDB3 peptide): 1 µM | Kd ([1]; no peptide, 10 C incubation, 1:1 binding fit): 6 µM | Kd [2]: 0.8 µM
